Assay results taken from US20200405868A1, “GEL-FORMING POLYPEPTIDES” (priority 2018, published 2020).
Where no end group is shown, it is not given here.

Test: Compound gel-forming ability in water (visual inspection, tube tapping assay, tilted tube assay);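 further: peptides mixed with de-ionized water at about 22-25 °C, judged after 20 min by eye plus tube tapping (10 taps, moves counted) and 90° tilt mobility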
Type: physicochemical
Conditions: for gel formation in aqueous solution, 6% / gel formation in aqueous solution, 11% / gel formation in aqueous solution, 20%: Table 3; for gel formation in aqueous solution, 6% / propensity to form gels, wild-type counterparts, 6%: 6% w/w; for gel formation in aqueous solution, 11% / propensity to form gels, wild-type counterparts, 11% / propensity to form gels, chimeric or mutated polypeptides, 11%: 11% w/w; for gel formation at 11% w/w: 11% w/w in water; for Physical property at 11% w/w: Table 1, 11% w/w in aqueous solution, room temperature; for gel formation in aqueous solution, 20% / propensity to form gels, wild-type counterparts, 20% / propensity to form gels, chimeric or mutated polypeptides, 20%: 20% w/w; for propensity to form gels, wild-type counterparts, 6% / propensity to form gels, wild-type counterparts, 11% / propensity to form gels, wild-type counterparts, 20% / propensity to form gels, chimeric or mutated polypeptides, 11% / propensity to form gels, chimeric or mutated polypeptides, 20%: Table 5; for gel formation at 20% w/w: 20% w/w in water

| Substance | gel formation in aqueous solution, 6% | gel formation in aqueous solution, 11% | gel formation at 11% w/w | Physical property at 11% w/w | gel formation in aqueous solution, 20% | propensity to form gels, wild-type counterparts, 6% | propensity to form gels, wild-type counterparts, 11% | propensity to form gels, chimeric or mutated polypeptides, 11% | other results |
| --- | --- | --- | --- | --- | --- | --- | --- | --- | --- |
| FKFEFKFE-miniPEG-RPKPQQFFGLM-NH2 [SEQ ID NO:284] | AS/IS (AS/IS for aqueous solution or insoluble) | AS/IS (AS/IS for aqueous solution or insoluble) | – | – | – | – | – | – | – |
| FTLSLDVPTNIMNLLFNIAKAKNLRAQAAANAHLMAQI-NH2 [SEQ ID NO:10, reference compound] | – | SS (SS for semisolid gel) | semisolid gel | SS (SS for semisolid gel) | SS (SS for semisolid gel) | SS (An ability to form semisolid gel is represented by an SS) | SS (An ability to form semisolid gel is represented by an SS) | – | gel formation at 3% w/w (3% w/w in water): liquid gel; gel formation at 6% w/w (6% w/w in water): semisolid gel |
| GRKKRRQRRRPQ [SEQ ID NO:36, reference compound] | – | AS/IS (AS/IS for aqueous solution or insoluble) | cannot form gel | AS/IS | AS/IS (AS/IS for aqueous solution or insoluble) | – | AS/IS | – | gel formation at 20% w/w: cannot form gel; propensity to form gels, wild-type counterparts, 20%: AS/IS; gel formation at the selected concentration (selected concentration (i.e., at 30%, 20%, 11%, or 6% w/w)): only form aqueous solution or are insoluble |
| HAEGTFTSDVSSYLEGQAAK(YSHPSS-Pal)EFIAWLVRGRG [SEQ ID NO:269] | – | SS (SS for semisolid gel) | – | – | SS (SS for semisolid gel) | – | – | SS (An ability to form semisolid gel is represented by an SS) | propensity to form gels, chimeric or mutated polypeptides, 20%: SS (An ability to form semisolid gel is represented by an SS) |
| HAEGTFTSDVSSYLEGQAAKEFIAWLVKGR-NH2 [SEQ ID NO:14, reference compound] | AS/IS (AS/IS for aqueous solution or insoluble) | – | liquid gel | – | – | AS/IS | – | – | – |
| HAEGTFTSDVSSYLEGQAAREFIAWLVK(YSHPSS-Pal)GRG [SEQ ID NO:270] | – | SS (SS for semisolid gel) | – | – | SS (SS for semisolid gel) | – | – | SS (An ability to form semisolid gel is represented by an SS) | propensity to form gels, chimeric or mutated polypeptides, 20%: SS (An ability to form semisolid gel is represented by an SS) |
| HGDGSFSDEMNTILDNLAARDFINWLIQTKITD-OH [SEQ ID NO:12, reference compound] | AS/IS (AS/IS for aqueous solution or insoluble) | – | liquid gel | – | – | AS/IS | – | – | – |
| HSDAVFTDNYTRLRKQ-Nle-AVKKYLNSILN-(Pal-K)-SY-NH2 [SEQ ID NO:266] | – | SS (SS for semisolid gel) | semisolid gel | – | – | – | – | SS (An ability to form semisolid gel is represented by an SS) | – |
| HSDAVFTDNYTRLRKQMAVKKYLNSILN [SEQ ID NO:67, reference compound] | – | AS/IS (AS/IS for aqueous solution or insoluble) | does not form gel | – | AS/IS (AS/IS for aqueous solution or insoluble) | – | AS/IS | – | gel formation at 20% w/w: does not form gel; propensity to form gels, wild-type counterparts, 20%: AS/IS |
| IEGPTLRQWLAARA [SEQ ID NO:9, reference compound] | – | – | – | SS (SS for semisolid gel) | – | – | – | – | – |
